Source: patent US20220396615A1 (NANJING GENSCRIPT BIOTECH, published 2022)
Substitutions are numbered along the chain they refer to.

B1: 53A2F9 (rat) (antibody, V domains shown)
VH: QVQLKESGPGLVQPSQTLSLTCTVSGFSLTSHTVSWIRQPPGRGLEWMGKMWSNGDTDYDSAIRSRLSITRDTSKSQVFLKINSLQTEDTAMYFCARYYFSSYGGGYFDYWGQGVMVTVSS
VL: DTVLTQSPALAVSLGQRVTISCRASKSVSTYMHWYQQKSGQQPKLLIYSASNLESGVPSRFSGSGSGTDFTLTIDPVEADDIANYYCQQSDELPDTFGAGTKLELK
notes: Rat hybridoma clone; Made recombinantly in HEK293-6E cells as variable region + constant region and purified on protein A as IgG
B2: 61G1D8 (rat) (antibody, V domains shown)
VH: EVQLLESGGGLVQPGRSMKLSCAASGFTFSSFPMAWVRQTPSKALEWVATISPSGGTSYSRDSVKGRFTISRDNANSTLCLHMDSLKSEDTATYYCLRERIYNTYFDYWGQGVMVTVSS
VL: DIRMTHSPASLSASLGETVSIECLPSEDISSDLAWYQQKPGKSPQLLIYNANTLPNGVPSRFSGSRSGAQYFLKINSLQSEDVATYFCQQYDSYPYTFGTGTKLELK
notes: as for B1
B3: 49F10H6 (antibody, V domains shown)
VH: QVQLQQPGAELVKPGASVKMSCKASGYTFTNYIIHWIKQTPGQGLEWIGAIYPGNGDTSYSQKFKDKATLTADRSSSTAYMQLSSLTSEDSAVYYCARGDAGYSAWFAYWGQGTLVTVSA
VL: NIVLTQSPASLAVSLGQRATISCSASESVDSYGNNFMHWYQQRPGQPPKLLIYLASKLESGVPARFSGSGSRTEFTLTIDPVEAEDAATYYCQQNNEDPLTFGAGTKLELK
notes: Mouse hybridoma clone; Made recombinantly in HEK293-6E cells as variable region + constant region and purified on protein A as IgG
B4: 41A10B8 (antibody, V domains shown)
VH: EVKLEESGGGLVQPGGSMKLSCAASGFTFSDAWMDWVRQSPDKGLEWVAEIRSKTYHPATYYTKSVRGRFTISRDDSKSSVYLQMNNLGAEDTGIYYCTRPRYYGGYFDYWGQGTTLTVSS
VL: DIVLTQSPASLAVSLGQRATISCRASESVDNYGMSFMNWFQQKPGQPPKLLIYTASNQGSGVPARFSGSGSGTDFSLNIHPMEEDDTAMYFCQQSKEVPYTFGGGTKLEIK
notes: as for B3
B5: 23A9H3 (antibody, V domains shown)
VH: QVQLQQSGAELAKPGASVKMSCKTSGYTFTNYWMHWVKQRPGQGLEWIGYVIPSTGYTDYNQSFKDKATLTADKSSNTAYMQVNSLTSEDSAVYYCASLLPGFAYWGQGTLVTVSA
VL: DVVMTQTPLSLPVSLGDQASISCRSSQSLVDSNGNTYLHWYLQKPGQSPKLLIYKVSNRFSGVPDRFSGSGSGTDFTLKISRVEAEDLGVYFCSQSTHVPPTFGGGTKLEIK
notes: as for B3
B6: 29D6B5 (antibody, V domains shown)
VH: QVQLQQSGAELAEPGASVKMSCKASGYNFNNYWMHWVKQGPGQGLEWIGYIDPRTASIYYNQKFKDKATLTADKSSSTAYMQLSSLTSEDSAVYYCARILYGKYDVWGAGTTVIVSS
VL: B5 VL with M4L, D17N, L51V, Y54H
notes: as for B3

Molecular target: T1, Tag-free human IL6 recombinant protein (GenScript, Cat. No. Z03034) (human, UniProt P05231 30-212)
Assay: cell-based or functional assay

| inhibitory IC50, IL6-dependent TF-1 cell proliferation [µg/mL] | Binder |
| --- | --- |
| 3.95 | B1 |
| 4.54 | B2 |

Molecular target: T1, Tag-free human IL6 recombinant protein …
Assay: indirect ELISA, IL6 coated at 0.5 µg/ml, antibody titrated
Method: The purified antibodies were evaluated for the binding ability to IL6 by indirect ELISA. The ELISA plate (Nunc) was coated with 0.5 μg/ml recombinant IL6 protein in PBS at 100 μl/well at 4° C. overnight. The plate was washed with PBS-T (0.05% Tween) and was blocked with PBST containing 1% BSA at 200 μl/well at 37° C. for 0.5 h. The blocking solution was then discarded. 100 μl 10 μg/ml purified antibody was added to the first well, and 3-fold gradient dilution was performed for 11 test concentration gradients in total. Incubation was then performed at room temperature for 1 h. The plate was washed with PBST for three times and incubated with horseradish peroxidase-conjugated goat anti-mouse/rat IgG (Fab-specific) (GenScript) at 100 μl/well at 37° C. for 0.5 h. The plate was washed with PBST for five times, and TMB chromogenic solution (GenScript) was then added and incubation was performed in dark for 15 min at room temperature. The reaction was stopped by adding 50 μl 1M HCl stop solution (Sigma). The plate was read at 450 nm by a microplate reader. The binding ability of the clones 8H10B7E6, 23A9H3, 29D6B5, 41A10B8, 49F10H6, 53A2F9 (rat), and 61G1D8 (rat) for recombinant protein IL6 was shown in FIG. 3.

| EC50 | Binder |
| --- | --- |
| 0.04 nM | B1 |
| < 0.025 µg/mL | B3 |
| < 0.025 µg/mL | B2 |
| < 0.025 µg/mL | B4 |
| < 0.025 µg/mL | B5 |
| < 0.025 µg/mL | B6 |
